# Reference: US20200317768A1 (published 2020)
# T1: cynomolgus monkey FcγRIIb extracellular domain with C-terminal His-tag (cynomolgus monkey)
# T1 construct: also called cyno FcgRIIb; cynoFcγRIIb
# T1 chain: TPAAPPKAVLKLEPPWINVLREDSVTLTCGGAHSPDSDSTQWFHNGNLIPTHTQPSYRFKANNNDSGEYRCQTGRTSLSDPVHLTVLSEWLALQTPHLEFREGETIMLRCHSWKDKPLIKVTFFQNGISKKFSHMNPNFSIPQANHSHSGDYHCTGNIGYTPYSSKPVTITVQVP
# Target: T1, cynomolgus monkey FcγRIIb extracellular …
# Experiment: SPR (BIACORE), antibody captured, FcgR analyte
row,Binder,Kd
1,"M103205H795-MY209/M103202L889-SK1 (antibody, human IgG1, kappa, Substitutions introduced into M103205H795-SG1, expressed with M103202L889-SK1 as light chain; EU numbering) heavy: QVTLKESGPVLVKPTETLTLTCTVSGIDLSHDDISWVRQAPGKGLEWVGIISYAGSTYYASWAKGRLTISKDTSKNQVVLTMTNMDPVDTATYYCARGVPAYSHGGDLWGQGTLVTVSSASTKGPSVFPLAPSSKSTSGGTAALGCLVKDYFPEPVTVSWNSGALTSGVHTFPAVLQSSGLYSLSSVVTVPSSSLGTQTYICNVNHKPSNTKVDKKVEPKSCDKTHTCPPCPAPELLNGPSVFLFPPKPKDTLMISRTPEVTCVVVDVSDEDPEVKFNWYVDGVEVHNAKTKPREELYNSTYRVVSVLTVLHQDWLNGKEYKCKVSNTALPKPIEKTISKAKGQPREPQVYTLPPSREEMTKNQVSLTCLVKGFYPSDIAVEWESNGQPENNYKTTPPVLDSDGSFFLYSKLTVDKSRWQQGNVFSCSVMHEALHNHYTQKSLSLSP light: DIVMTQSPATLSLSPGERATLSCTSSQSVYHANWLSWFQQKPGQPPKLLIYWASTLAYGVPSRFSGSGSGTDFTLTISSLQPEDAATYYCAGGYGGGRYAFGQGTKVEIKRTVAAPSVFIFPPSDEQLKSGTASVVCLLNNFYPREAKVQWKVDNALQSGNSQESVTEQDSKDSTYSLSSTLTLSKADYEKHKVYACEVTHQGLSSPVTKSFNRGEC",190 nM
2,"M103205H795-MY386/M103202L889-SK1 (antibody, human IgG1, kappa, Substitutions introduced into M103205H795-SG1, expressed with M103202L889-SK1 as light chain; EU numbering) heavy: QVTLKESGPVLVKPTETLTLTCTVSGIDLSHDDISWVRQAPGKGLEWVGIISYAGSTYYASWAKGRLTISKDTSKNQVVLTMTNMDPVDTATYYCARGVPAYSHGGDLWGQGTLVTVSSASTKGPSVFPLAPSSKSTSGGTAALGCLVKDYFPEPVTVSWNSGALTSGVHTFPAVLQSSGLYSLSSVVTVPSSSLGTQTYICNVNHKPSNTKVDKKVEPKSCDKTHTCPPCPAPELLLGPSVFLFPPKPKDTLMISRTPEVTCVVVDVSDEDPEVKFNWYVDGVEVHNAKTKPREELYNSTYRVVSVLTVLHQDWLNGKEYKCKVSNTALPKPIEKTISKAKGQPREPQVYTLPPSREEMTKNQVSLTCLVKGFYPSDIAVEWESNGQPENNYKTTPPVLDSDGSFFLYSKLTVDKSRWQQGNVFSCSVMHEALHNHYTQKSLSLSP light: DIVMTQSPATLSLSPGERATLSCTSSQSVYHANWLSWFQQKPGQPPKLLIYWASTLAYGVPSRFSGSGSGTDFTLTISSLQPEDAATYYCAGGYGGGRYAFGQGTKVEIKRTVAAPSVFIFPPSDEQLKSGTASVVCLLNNFYPREAKVQWKVDNALQSGNSQESVTEQDSKDSTYSLSSTLTLSKADYEKHKVYACEVTHQGLSSPVTKSFNRGEC",1500 nM
3,"M103205H795-MY340/M103202L889-SK1 (antibody, human IgG1, kappa, Substitutions introduced into M103205H795-SG1, expressed with M103202L889-SK1 as light chain; EU numbering) heavy: QVTLKESGPVLVKPTETLTLTCTVSGIDLSHDDISWVRQAPGKGLEWVGIISYAGSTYYASWAKGRLTISKDTSKNQVVLTMTNMDPVDTATYYCARGVPAYSHGGDLWGQGTLVTVSSASTKGPSVFPLAPSSKSTSGGTAALGCLVKDYFPEPVTVSWNSGALTSGVHTFPAVLQSSGLYSLSSVVTVPSSSLGTQTYICNVNHKPSNTKVDKKVEPKSCDKTHTCPPCPAPELLLGPSVFLFPPKPKDTLMISRTPEVTCVVVDVSDEDPEVKFNWYVDGVEVHNAKTKPREELYNSTYRVVSVLTVLHQDWLNGKEYKCKVSNKALPKPIEKTISKAKGQPREPQVYTLPPSREEMTKNQVSLTCLVKGFYPSDIAVEWESNGQPENNYKTTPKVLDSDGSFFLYSKLTVDKSRWQQGNVFSCSVMHEALHNHYTQKSLSLSP light: DIVMTQSPATLSLSPGERATLSCTSSQSVYHANWLSWFQQKPGQPPKLLIYWASTLAYGVPSRFSGSGSGTDFTLTISSLQPEDAATYYCAGGYGGGRYAFGQGTKVEIKRTVAAPSVFIFPPSDEQLKSGTASVVCLLNNFYPREAKVQWKVDNALQSGNSQESVTEQDSKDSTYSLSSTLTLSKADYEKHKVYACEVTHQGLSSPVTKSFNRGEC",1100 nM
4,"M103205H795-MY341/M103202L889-SK1 (antibody, human IgG1, kappa, Substitutions introduced into M103205H795-SG1, expressed with M103202L889-SK1 as light chain; EU numbering) heavy: QVTLKESGPVLVKPTETLTLTCTVSGIDLSHDDISWVRQAPGKGLEWVGIISYAGSTYYASWAKGRLTISKDTSKNQVVLTMTNMDPVDTATYYCARGVPAYSHGGDLWGQGTLVTVSSASTKGPSVFPLAPSSKSTSGGTAALGCLVKDYFPEPVTVSWNSGALTSGVHTFPAVLQSSGLYSLSSVVTVPSSSLGTQTYICNVNHKPSNTKVDKKVEPKSCDKTHTCPPCPAPELLLGPSVFLFPPKPKDTLMISRTPEVTCVVVDVSDEDPEVKFNWYVDGVEVHNAKTKPREELYNSTYRVVSVLTVLHQDWLNGKEYKCKVSNTALPKPIEKTISKAKGQPREPQVYTLPPSREEMTKNQVSLTCLVKGFYPSDIAVEWESNGQPENNYKTTPKVLDSDGSFFLYSKLTVDKSRWQQGNVFSCSVMHEALHNHYTQKSLSLSP light: DIVMTQSPATLSLSPGERATLSCTSSQSVYHANWLSWFQQKPGQPPKLLIYWASTLAYGVPSRFSGSGSGTDFTLTISSLQPEDAATYYCAGGYGGGRYAFGQGTKVEIKRTVAAPSVFIFPPSDEQLKSGTASVVCLLNNFYPREAKVQWKVDNALQSGNSQESVTEQDSKDSTYSLSSTLTLSKADYEKHKVYACEVTHQGLSSPVTKSFNRGEC",600 nM
5,"M103205H795-MY342/M103202L889-SK1 (antibody, human IgG1, kappa, Substitutions introduced into M103205H795-SG1, expressed with M103202L889-SK1 as light chain; EU numbering) heavy: QVTLKESGPVLVKPTETLTLTCTVSGIDLSHDDISWVRQAPGKGLEWVGIISYAGSTYYASWAKGRLTISKDTSKNQVVLTMTNMDPVDTATYYCARGVPAYSHGGDLWGQGTLVTVSSASTKGPSVFPLAPSSKSTSGGTAALGCLVKDYFPEPVTVSWNSGALTSGVHTFPAVLQSSGLYSLSSVVTVPSSSLGTQTYICNVNHKPSNTKVDKKVEPKSCDKTHTCPPCPAPELLLGPSVFLFPPKPKDTLMISRTPEVTCVVVDVSDEDPEVKFNWYVDGVEVHNAKTKPREELYNSTYRVVSVLTVLHQDWLNGKEYKCKVSNKALPKPIEKTISKAKGQPREPQVYTLPPSREEMTKNQVSLTCLVKGFYPSDIAVEWESNGQPENNYKTTPMVLDSDGSFFLYSKLTVDKSRWQQGNVFSCSVMHEALHNHYTQKSLSLSP light: DIVMTQSPATLSLSPGERATLSCTSSQSVYHANWLSWFQQKPGQPPKLLIYWASTLAYGVPSRFSGSGSGTDFTLTISSLQPEDAATYYCAGGYGGGRYAFGQGTKVEIKRTVAAPSVFIFPPSDEQLKSGTASVVCLLNNFYPREAKVQWKVDNALQSGNSQESVTEQDSKDSTYSLSSTLTLSKADYEKHKVYACEVTHQGLSSPVTKSFNRGEC",1300 nM
6,"M103205H795-MY283/M103202L889-SK1 (antibody, human IgG1, kappa, Substitutions introduced into M103205H795-SG1, expressed with M103202L889-SK1 as light chain; EU numbering) heavy: QVTLKESGPVLVKPTETLTLTCTVSGIDLSHDDISWVRQAPGKGLEWVGIISYAGSTYYASWAKGRLTISKDTSKNQVVLTMTNMDPVDTATYYCARGVPAYSHGGDLWGQGTLVTVSSASTKGPSVFPLAPSSKSTSGGTAALGCLVKDYFPEPVTVSWNSGALTSGVHTFPAVLQSSGLYSLSSVVTVPSSSLGTQTYICNVNHKPSNTKVDKKVEPKSCDKTHTCPPCPAPELLTGPSVFLFPPKPKDTLMISRTPEVTCVVVDVSDEDPEVKFNWYVDGVEVHNAKTKPREELYNSTYRVVSVLTVLHQDWLNGKEYKCKVSNKALPKPIEKTISKAKGQPREPQVYTLPPSREEMTKNQVSLTCLVKGFYPSDIAVEWESNGQPENNYKTTPPVLDSDGSFFLYSKLTVDKSRWQQGNVFSCSVMHEALHNHYTQKSLSLSP light: DIVMTQSPATLSLSPGERATLSCTSSQSVYHANWLSWFQQKPGQPPKLLIYWASTLAYGVPSRFSGSGSGTDFTLTISSLQPEDAATYYCAGGYGGGRYAFGQGTKVEIKRTVAAPSVFIFPPSDEQLKSGTASVVCLLNNFYPREAKVQWKVDNALQSGNSQESVTEQDSKDSTYSLSSTLTLSKADYEKHKVYACEVTHQGLSSPVTKSFNRGEC",420 nM
7,"M103205H795-MY380/M103202L889-SK1 (antibody, human IgG1, kappa, Substitutions introduced into M103205H795-SG1, expressed with M103202L889-SK1 as light chain; EU numbering) heavy: QVTLKESGPVLVKPTETLTLTCTVSGIDLSHDDISWVRQAPGKGLEWVGIISYAGSTYYASWAKGRLTISKDTSKNQVVLTMTNMDPVDTATYYCARGVPAYSHGGDLWGQGTLVTVSSASTKGPSVFPLAPSSKSTSGGTAALGCLVKDYFPEPVTVSWNSGALTSGVHTFPAVLQSSGLYSLSSVVTVPSSSLGTQTYICNVNHKPSNTKVDKKVEPKSCDKTHTCPPCPAPELLNGPSVFLFPPKPKDTLMISRTPEVTCVVVDVSEEDPEVKFNWYVDGVEVHNAKTKPREEQYNSTYRVVSVLTVLHQDWLNGKEYKCKVSNKALPKPIEKTISKAKGQPREPQVYTLPPSREEMTKNQVSLTCLVKGFYPSDIAVEWESNGQPENNYKTTPKVLDSDGSFFLYSKLTVDKSRWQQGNVFSCSVMHEALHNHYTQKSLSLSP light: DIVMTQSPATLSLSPGERATLSCTSSQSVYHANWLSWFQQKPGQPPKLLIYWASTLAYGVPSRFSGSGSGTDFTLTISSLQPEDAATYYCAGGYGGGRYAFGQGTKVEIKRTVAAPSVFIFPPSDEQLKSGTASVVCLLNNFYPREAKVQWKVDNALQSGNSQESVTEQDSKDSTYSLSSTLTLSKADYEKHKVYACEVTHQGLSSPVTKSFNRGEC",290 nM
8,"M103205H795-MY339/M103202L889-SK1 (antibody, human IgG1, kappa, Substitutions introduced into M103205H795-SG1, expressed with M103202L889-SK1 as light chain; EU numbering) heavy: QVTLKESGPVLVKPTETLTLTCTVSGIDLSHDDISWVRQAPGKGLEWVGIISYAGSTYYASWAKGRLTISKDTSKNQVVLTMTNMDPVDTATYYCARGVPAYSHGGDLWGQGTLVTVSSASTKGPSVFPLAPSSKSTSGGTAALGCLVKDYFPEPVTVSWNSGALTSGVHTFPAVLQSSGLYSLSSVVTVPSSSLGTQTYICNVNHKPSNTKVDKKVEPKSCDKTHTCPPCPAPELLLGPSVFLFPPKPKDTLMISRTPEVTCVVVDVSDEDPEVKFNWYVDGVEVHNAKTKPREEQYNSTYRVVSVLTVLHQDWLNGKEYKCKVSNTALPKPIEKTISKAKGQPREPQVYTLPPSREEMTKNQVSLTCLVKGFYPSDIAVEWESNGQPENNYKTTPKVLDSDGSFFLYSKLTVDKSRWQQGNVFSCSVMHEALHNHYTQKSLSLSP light: DIVMTQSPATLSLSPGERATLSCTSSQSVYHANWLSWFQQKPGQPPKLLIYWASTLAYGVPSRFSGSGSGTDFTLTISSLQPEDAATYYCAGGYGGGRYAFGQGTKVEIKRTVAAPSVFIFPPSDEQLKSGTASVVCLLNNFYPREAKVQWKVDNALQSGNSQESVTEQDSKDSTYSLSSTLTLSKADYEKHKVYACEVTHQGLSSPVTKSFNRGEC",750 nM
